Laboratory results reported in patent US20110159022A1, “Immunogenic Peptides Derived from the Midkine Protein, as an Anticancer Vaccine” (priority 2008, published 2011).
Numbering of substitutions follows the chain as printed.

Experiments:
HLA-DRB4 (DRB4*0101) = HLA-DRB4 (DRB4*0101) (Homo sapiens, UniProt P01903+P13762, G164S); assay: HLA II/peptide competition binding assay, DRB4; settings: ratio of IC50 of competitor peptide to IC50 of reference peptide; mean of at least two independent experiments; less than 100 = active
HLA-DRB3 (DRB3*0101) = HLA-DRB3 (DRB3*0101) (Homo sapiens, UniProt P01903+P79483); assay: HLA II/peptide competition binding assay, DRB3; settings: ratio of IC50 of competitor peptide to IC50 of reference peptide; mean of at least two independent experiments; less than 100 = active
HLA-DP401 (DPB1*0401) = biological target: T1, HLA-DP401 (DPB1*0401) (Homo sapiens, UniProt P04440+P20036); assay type: binding; settings: ratio of IC50 of competitor peptide to IC50 of reference peptide; mean of at least two independent experiments; less than 100 = active
T1 sequence (P04440 30-258): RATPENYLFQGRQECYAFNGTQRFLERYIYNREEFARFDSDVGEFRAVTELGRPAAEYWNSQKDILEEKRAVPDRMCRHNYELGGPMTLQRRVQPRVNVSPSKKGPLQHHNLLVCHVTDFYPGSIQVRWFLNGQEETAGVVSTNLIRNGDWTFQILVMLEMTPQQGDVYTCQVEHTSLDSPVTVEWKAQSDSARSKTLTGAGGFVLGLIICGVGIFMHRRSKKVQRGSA
T1 sequence (P20036 29-260): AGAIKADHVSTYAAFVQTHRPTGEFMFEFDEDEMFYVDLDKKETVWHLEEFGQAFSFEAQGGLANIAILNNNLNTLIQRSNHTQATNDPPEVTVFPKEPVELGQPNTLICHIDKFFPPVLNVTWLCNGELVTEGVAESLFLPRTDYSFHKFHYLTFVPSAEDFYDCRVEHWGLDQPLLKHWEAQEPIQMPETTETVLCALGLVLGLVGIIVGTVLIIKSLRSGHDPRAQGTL

HLA-DR13 (DRB1*1301) = HLA-DR13 (DRB1*1301) (Homo sapiens, UniProt P01903+P01911, A100E/A169T/K41T/L162R/M171V/P40S/Q125H/Q178H/Q39Y/Q99D/R42S/S66N/T262R/W38E/Y61H); assay: HLA II/peptide competition binding assay, DR13; settings: ratio of IC50 of competitor peptide to IC50 of reference peptide; mean of at least two independent experiments; less than 100 = active
HLA-DR3 (DRB1*0301) = HLA-DR3 (DRB1*0301) (Homo sapiens, UniProt P01903+P01911, A100K/A102G/A103R/A169T/F55Y/I96L/K41T/L162R/M171V/P40S/Q125H/Q178H/Q39Y/R42S/S66N/T106N/T262R/W38E/Y61H); assay: HLA II/peptide competition binding assay, DR3; settings: ratio of IC50 of competitor peptide to IC50 of reference peptide; mean of at least two independent experiments; less than 100 = active
HLA-DR15 (DRB1*1501) = HLA-DR15 (DRB1*1501) (Homo sapiens, UniProt P01903+P01911); assay: HLA II/peptide competition binding assay, DR15; settings: ratio of IC50 of competitor peptide to IC50 of reference peptide; mean of at least two independent experiments; less than 100 = active
HLA-DP402 (DPB1*0402) = biological target: T2, HLA-DP402 (DPB1*0402) (Homo sapiens, UniProt P04440+P20036, A65V/A84D/A85E/L207M); assay type: binding; settings: ratio of IC50 of competitor peptide to IC50 of reference peptide; mean of at least two independent experiments; less than 100 = active
T2 sequence (P04440 30-258 A65V/A84D/A85E): T1 sequence (P04440 30-258) with A36V, A55D, A56E
T2 sequence (P20036 29-260): T1 sequence (P20036 29-260)

HLA-DR4 (DRB1*0401) = HLA-DR4 (DRB1*0401) (Homo sapiens, UniProt P01903+P01911, A100K/A169T/F76Y/I96L/K127E/L162R/M171V/N62H/P40V/Q125Y/R42H/S133A/S149N/S66Y/V115G/V209L/W38E); assay: HLA II/peptide competition binding assay, DR4; settings: ratio of IC50 of competitor peptide to IC50 of reference peptide; mean of at least two independent experiments; less than 100 = active
[1] = system: 12 predominant HLA II molecules; assay: HLA II/peptide binding assays, count over the panel; parameters: species or system human; settings: relative activity of less than 100 characterizes the active peptides
Description: The assays for binding to HLA II molecules are competition binding assays with immunoenzymatic visualization, as described in U.S. Pat. No. 6,649,166 and PCT international application WO 03/040299, respectively, for the HLA-DR and HLA-DP4 molecules. The implementation of these assays for measuring the binding activity of peptides derived from various antigens is illustrated in U.S. Pat. No. 6,649,166 and PCT international applications WO 02/090382, WO 03/040299 and WO 2004/014936.
The sensitivity of each test is reflected by the IC50 values observed with the nonbiotinylated peptides which correspond to the tracers. […] The results are expressed in the form of relative activity (ratio of the IC50 of the competitor peptide to that of the reference peptide (nonbiotinylated peptide which corresponds to the tracer)). A relative activity of less than 100 characterizes the active peptides.

[2] = system: CD8^+ T lymphocytes of healthy individuals possessing the HLA-A2 molecule; assay: In vitro induction of peptide-specific CD8+ T lymphocyte lines, IFN-γ Elispot; assay type: cell-based, human; settings: for Ability to induce an in vitro CD8+ T lymphocyte response: cells from healthy HLA-A2 individuals, 4 weeks of culture
Procedure: The PBMCs were then cultured in AIM V medium (Life Technologies) and incubated overnight at 37° C. in the presence of 5% CO2/95% air. The CD8^+ T lymphocytes were purified from the nonadherent cells by immunomagnetic sorting, and frozen. The adherent cells were differentiated into immature dendritic cells by culturing for 5 days in AIM V medium containing 1000 U/ml of GM-CSF and 1000 U/ml of IL-4, and then into mature dendritic cells by culturing for 2 days in the presence of 1 μg/ml of LPS, 1000 U/ml of IL-4 and 1000 U/ml of GM-CSF. The mature dendritic cells were incubated in the presence of 5 μg/ml of beta-2-microglobulin and 10 μg/ml of each of the peptides of table IV. After 4 hours, the cells were washed and then placed in culture in 96-well plates, in the presence of purified CD8 T lymphocytes in IMDM medium containing 10% of group AB human serum, IL-6 (1000 U/ml) and IL-12 (5 ng/ml). Each week, the culture was restimulated with autologous mature dendritic cells loaded with the peptide mixture mentioned above, in medium containing 20 U/ml of IL-2 and 10 ng/ml of IL-7. After 4 weeks of culture, the specificity of the T cell lines contained in each well was tested by IFN-γ Elispot.
Anti-IFN-γ antibodies (1-D1K, Mabtech) diluted to 2.5 μg/ml in PBS buffer were adsorbed onto nitrocellulose plates (Millipore) for 1 hour at 37° C. The plates were then washed with PBS and then saturated with Iscove medium containing 10% of group AB human serum (100 μg/well), for 2 h at 37° C.
In order to verify the specificity of the lines with respect to the HLA-A2 molecule, the C1R cells transfected with HLA-A2 (30 000 cells/well) and 5000 test lymphocytes were then added to the plates and incubated for 24 h at 37° C., in the presence or absence of a single peptide (10 μg of peptide) or of a mixture of peptides (10 μg of each peptide). For the dose-response analyses, the peptides are used at various concentrations ranging from 0.001 to 10 μg/ml.
After three successive washes with water, PBS buffer/0.05% Tween and PBS alone, 100 μl of biotinylated anti-IFN-γ secondary antibody (7-B6-1-biotin, Mabtech), diluted to 0.25 μg/ml in PBS containing 1% BSA, were added to each well. After one hour of incubation at ambient temperature, the plates were washed again and then incubated for one hour at ambient temperature with 100 μg/well of Extravidin-AKP (E-2636, Sigma), diluted to 1/6000. After washing of the plates in PBS buffer, 100 μl of NBT/BCIP substrate B-5655, Sigma), diluted in water (1 tablet in 10 ml of water), were distributed in each well. The immunoenzymatic visualization was stopped after approximately 10 minutes, by thorough rinsing of the plates in water. After drying of the plates, the colored spots were counted using an automatic reader (AID). The lines are considered to be positive when the number of spots is more than three times that obtained with the negative control (control without peptides) with a minimum of 50 spots. The control without presenting cells makes it possible to verify the specificity of the response for HLA-A2 (restriction control).

Substance | Relative binding activity, DR13 (HLA-DR13 (DRB1*1301)) | Relative binding activity, DR3 (HLA-DR3 (DRB1*0301)) | Relative binding activity, DR15 (HLA-DR15 (DRB1*1501)) | Relative binding activity, DR4 (HLA-DR4 (DRB1*0401)) | Total (number of the 12 predominant HLA II molecules bound) [1] | Ability to induce an in vitro CD8+ T lymphocyte response [2] | also measured
E T I R V T K P C T P K T K A (ETIRVTKPCTPKTKA) [MDK 119-133] | >2 537 | >419 | >529 | 1 289 | – | – | Relative binding activity, DRB4 (HLA-DRB4 (DRB4*0101)): >28 868; Relative binding activity, DRB3 (HLA-DRB3 (DRB3*0101)): >485; Relative binding activity, DP401 (HLA-DP401 (DPB1*0401)): >879; Relative binding activity, DP402 (HLA-DP402 (DPB1*0402)): >976
L L A L T S A V A K K K D K V (LLALTSAVAKKKDKV; MDK 14-28 peptide) | – | >419 | >529 | – | 4 | – | Relative binding activity, DRB4 (HLA-DRB4 (DRB4*0101)): >28 868; Relative binding activity, DRB3 (HLA-DRB3 (DRB3*0101)): >485; Relative binding activity, DP401 (HLA-DP401 (DPB1*0401)): >879; Relative binding activity, DP402 (HLA-DP402 (DPB1*0402)): >976; Total (number of the 12 predominant HLA II molecules bound) ([1]; listed as 14-28): several
LALLALTSAV (MDK 12-21 peptide) | – | – | – | – | – | induced CD8^+ T lymphocytes | Peptide specificity of CD8+ T lymphocyte line 267.29A ([2]; FIG. 2): specific
LLALTSAVA (MDK 14-22 peptide) | – | – | – | – | – | induced CD8^+ T lymphocytes | Peptide specificity of CD8+ T lymphocyte line 278.11A ([2]; FIG. 2): specific
M Q H R G F L L L T L L A L L (MQHRGFLLLTLLALL; MDK 1-15 peptide) | >2 537 | >419 | 211 | 226 | 5 | – | Total (number of the 12 predominant HLA II molecules bound) ([1]; listed as 1-15): several
NAQCQETIRV (MDK 113-122 peptide) | – | – | – | – | – | induced CD8^+ T lymphocytes | –
R G F L L L T L L A L L A L T (RGFLLLTLLALLALT; MDK 4-18 peptide) | >2 537 | >419 | – | 136 | 9 | – | Total (number of the 12 predominant HLA II molecules bound) ([1]; listed as 4-18): several
